The source of these data is the DeepSol protein solubility set.

The nature of this data set: soluble on expression in E. coli; label from the status in PepcDB or PDB records.
As for “QVVMPRPPALCQGCGHRDVYDALNKVAAEYPDARIFGDIGCYTLGALPPFRAIDSCVDMGASITMAKGASDAGVFPAIAVIGDSTFTHSGMTGLLDAVNDRANITVVISDNLTTAMTGGQDSAGTNKFEAICLGLGVEPEHVRVVVPLPKNMEEITRTIREEIEYKGVSVIIPRRECIQTLNRKLRQKKADKA”, the “soluble on expression in E. coli” value is recorded as “not soluble”. “MAHHHHHHMDMLHQIYALEYKRNTQRSDRIRDKDKTKIRILFIGGNEFSLLCFKVIRLIIKYVRNDIVLDHVITKSPRKKGRHLKLKKSHIEEEAEKEKIKIFYYDKIRNDTYMLKNETFDLCISASFGEIFNASFFKNIASNVYTLHPSLLPLYRGASPIQRSLLNNESLFGYSIFLTNLRIDAGPVLIRSPHTFGDAFNFNDIITILFTLGSLHLMRHIFFLANYKLGSTNGELQRTVESPNPSTISTHNNNKHLKIRHLLYDEENITPHNVKKKQFMLHTDIGQDKMNYAWLRNYLMLSSTHNNNTYAPKIKSEERYVCFFCSTALHIHNKVRGFINWPKVECTLYLVHKGGLKAMEVKLIKTSQESGDHISHQHLHQFKHLDALQSHKCFDGIPRKLAIFNRGAINILCKDNSLLKIYKLQRKNKKIMDASSFFNSINGVDLLY”: the “soluble on expression in E. coli” value is “not soluble”. On to “MSLTIGFIFDLDGVITDTAKFHYQAWKALADSLGIPIDETFNETLKGISRMDSLDRILVHGHRENAFTPAEKEALAQQKNDHYVQLLEQLTTEDVLPGVVPLLQQAQARHIPCAVASASKNAPLILEKLGVRAYFATIVDPDSLSKGKPDPEIFLAAADSIGVLPQNAIGFEDAQSGIDGLKAAGIYAVGLSASQPLIGADMQVSEMTELSVDALLNREGHHHHHH”, for which the “soluble on expression in E. coli” value is on record as “soluble”. The same measure for “PRERVSRVHASSGTTGKPTVVGYTARDLDNWANLVARSIRAAGGKPGDIVHVSYGYGLFTGGLGAHYGAERLGCTVVPMSGGQTEKQVQLINDFRPDIIMVTPSYYCNILEEQRRQGMDPRQSSLRIGIFGAEPWTGQMRADIEAEGGIDAVDIYGLSEVMGPGVASECVETKDGPVV”: “not soluble”; for “MSLTDNLVRVVCVSDTHNTKPNLPDGDILIHAGDLTESGTKEELEKQIYWLDSQPHRYKIVIAGNHETFLDRNYHSHHGNERVTMDWKSLIYLENTSAILDLGAGHQLKVFGSPYTPKHGNGAFQYPRTDTTTWEEIPKDTDLLVTHGPPKAHLDLGHLGCRVLRQALWEMESRPLLHVFGHIHGGYGKEEGHHHHHH”: “soluble”. Turning to “MGSDKIHHHHHHMRNILEIVKFWFYDYDVTATEIKANVIKIHCNNKSYILKEKGSIKQLLVEINVLEQLEEKGVKAQKLVKTSNSEKYVVYKERYYCLYEYVVGSVLEIKDPENLKNLGSLIGEEIAKLHQALNSVNSNNELVKRELYKLVYEWALPNLEKNEHVDQDVVRTMNQIHSDFKKTITSLRKQIIHRDMHLSNVIFKDNEFQGFIDFELLERNVRVFDLCYCCTSILSELHSDEELRGKWQHIISKIFEGYNKQSILTREELQAIWYVMLSIQVIFITYFVQLPDLLKLNEEMFFWIFANKETIEELIERSVQI”, the “soluble on expression in E. coli” value is reported as “not soluble”. Regarding “YDTVIRNRQTNDVNYLKRLAKKFGFSETQFMTTYQSSELAANLDEERQVVSRLKINQLPAYVVTYNEQSYVIKGVLKYKEWLDIIQQITN”, the “soluble on expression in E. coli” value was “not soluble”.

Take “MLFDSLPRPSERIAPGVAHLPGWLGVDKQAELVREIREIARTYADTPMAMLRPTLKSGGQMSVYQLHLGRYWHYPSYRYIDKIAGTTVPPVPDSLAALAPEALRAAAEVAEELAPWVETFVPEMVLVNYYPPGSRMGMHVDEFEESRAPVISVSIGDEALFRMGHTESRTQPWDDVTLCSGDLVVFGGPKRFAYHGVVRVNDATLPDGCGLEQGRINITIRQVSAAPNVQGR”: the “soluble on expression in E. coli” value is “not soluble”. In the case of “MAHHHHHHMSVEELFATARKYSDSVVGGPAWDRLFSLRLTNEEILCIAKKMILSQPTFLMEVNGTKLEEIPPLAVAVRIEAFTNVPKSEGESGGVEKAVALEEKRTAAQQREVLRELASVRAQYRAVLREGNDLMACIDEEERRWNKIEMHREEEQRKRKEHPAAPPSEHDEHIRKNVCALETLQQKREKEEESAQATARTVMAEKKRKKTGKGSRGGGGSEKKFASTSNVTSKEAEIRNVRAHNTALRRLLEKLANELKEEEQTMENLSIDLRGFMSDINKLEKAKLLLTVEHGMLMNTTARLQQSLRDQKEKLRQEQEAAAAEQREISRRLLVQQERTKKSLHEKNGTTELLHRLKTNLSK” it was “not soluble”.

Take “MKNIIPQALLTMPILSTGLQAQEKQPTPNLVFIMADQYRGDAIGCIGKEPVKTPHLDKLASEGINFTNAISSYPVSSPARGMLMTGMYPIGSKVTGNCNSETAPYGVELSQNARCWSDVLKDQGYNMGYIGKWHLDAPYKPYVDTYNNRGKVAWNEWCPPERRHGFDHWIAYGTYDYHLKPMYWNTTAPRDSFYYVNQWGPEYEASKAIEYINGQKDQKQPFALVVSMNPPHTGYELVPDRYKEIYKDLDVEALCKGRPDIPAKGTEMGDYFRNNIRNYYACITGVDENVGRIIEALKQNNLFDNTIVVFTSDHGICMGAHENAGKDIFYEESMRIPMILSWPDQIKPRKSDPLMIAFADLYPTLLSMMGFSKEIPETVQTFDLSNEVLTGKNKKDLVQPYYFVKFDNHATGYRGLRTDRYTYAVHATDGKIDNVILFDRTNDPHEMNNIASQQLKLTHTFNRQLKTWLEKTNDPFAQYIKLKLEHHHHHH”: the “soluble on expression in E. coli” value was “soluble”. Turning to “MATANNPPSGLLDPTLCEDRIFYNILEIEPRFLTSDSVFGTFQQSLTSHMRKLLGTWMFSVCQEYNLEPNVVALALNLLDRLLLIKQVSKEHFQKTGSACLLVASKLRSLTPISTSSLCYAAADSFSRQELIDQEKELLEKLAWRTEAVLATDVTSFLLLKLVGGSQHLDFWHHEVNTLITKALVDPLTGSLPASIISAAGCALLVPANVIPQDTHSGGVVPQLASILGCDVSVLQAAVEQILTSVSDFDLRILDSY”, the “soluble on expression in E. coli” value is “soluble”. The same measure for “MKFKYLSTPLLFSALLFSACSSVNVGANLKSLIKETTDQDLDLSESVSTSEGKKNLISSLKKSYETNPSKTASVLLNAWKQSVENGQIESSETNWTNWKFP”: “soluble”; for “MGSDKIHHHHHHMHNEIVTGNVLPFNIFEKADSKLLAWIRDVSVVREITTSCRLIEEGSTPDGLFVVESGAITVCTKQADGGSLSLASLKVGNLVGEMSWLEERPAVASIDAGPGSRLLQIPREALESINQSEAFICHLLYRLIAEKLALQVQGQNIWVHRIAGTDQEPLRKVLVLFAELEEKDVAWIARSGKFKRLVAGDVLLQEGDNVPGLYLLLAGEARISITENGSWQSVGSSRRGELLGELTMLNPQAAGATANVDTVTGLELLVLDKEELSMTLNADPRLAKRFYKGIARMLSQRSRDQLLSRGFAEASRIAEELIDNEQLGLDQLSAISSAGLRFDWLCRQFQDKEG”: “not soluble”.

Take “MSSSHKSWNSIYEFTVKDINGVDVSLEKYRGHVCLIVNVACKCGATDKNYRQLQEMHTRLVGKGLRILAFPCNQFGGQEPWAEAEIKKFVTEKYGVQFDMFSKIKVNGSDADDLYKFLKSRQHGTLTNNIKWNFSKFLVDRQGQPVKRYSPTTAPYDIEGDIMELLEKK”: the “soluble on expression in E. coli” value is recorded as “soluble”. In the case of “SLKQPVFKKVLQVGIVVHDLEKAVRTYADDFGIGPWQFYNLDKSNMHDMKMRGEKAEFSMKVAFTDLGGVQLELIEPLDESIYSDFLREHGEGIHHIACGVRNFEETMASMQKKDIKVLLEGTTSAGMGYVYLDTTDALSCITEIYRIPENLQYIPPDKTYEG” it was “soluble”; in that of “MAEEKFFLGRQPILDREQRLYGFELLFRSADSLHANVTDYLQASASVIFDALSSFGFREILGKHKGFINVNADVLMSEALELLPPEKVVIELLEHVPITETVISRCHELREKGFSLALDDHIYEPVYEPLYHLVDVIKVDLFRTGMENLASEVETLRKWNTKLLAEKVETVEQYERCADLGFTYFQGYYFARP”, “not soluble”. In the case of “MMTKYGVVGTGYFGAELARFMSKVEGAKITAIYDPVNAAPIAKELNCVATATMEALCSHPDVDCVIIASPNYLHKAPVIAAAKAGKHVFCEKPIALNYQDCKDMVDACKEAGVTFMAGHVMNFFHGVRHAKALIKAGEIGEVTQVHTKRNGFEDVQDEISWKKIRAKSGGHLYHHIHELDCTLFIMDETPSLVSMAAGNVAHKGEKFGDEDDVVLITLEFESGRFATLQWGSSFHYPEHYVLIEGTTGAILIDMQNTAGYLIKAGKKTHFLVHESQAEDDDRRNGNISSEMDGAIAYGKPGKRTPMWLSSIMKLEMQYLHDVINGLEPGEEFAKLLTGEAATNAIATADAATLSSNEGRKVKLTEILG” it was “not soluble”; in that of “MGSDKIHHHHHHMAESKTKRLLYFMSELEKGNQINKEEYIAKFNISDRTMKEDVSELKTNLKELRPNMQIKFSRKHACYFASYEQGYGNLKYNQAVILSKILLESRALRKEEVAEIINIFVERAVDDKERTRIKKLTQFELNSYQELKFYQKSNKSILPTISAIFDAIVDQRPLAFSYTKPSSKVEEYIVLPISVIFDNHYFYCISYKLDNCFQSRYELQELRYFRVDRFKTIHKSISNSAFALTEEEQERLITDEQVRYQTFSMLSDQKWVRIQFRYTGQFRDVLEADIPKLKMINELEEGIIYEIETLSLLGFQKYIQRFDGDFVFLNIKSIKK”, “not soluble”; in that of “MSLIIRKLFEFENAHIVRFCSSKRCKSSIHGHSYKVEVLLESKYLDNAGMVYDFGLLKTYIRQIIDSFDHAITLFKYDDAKYLEEMKKYSSRWICLPVNVSAENFCRVFFILIDALLKQTKMVNGEQGVTLQSIIVHETRTGYAQGFREDAEGHHHHHH”, “not soluble”. “IFIGNLDPEIDEKLLYDTFSAFGVILQTPKIMRDPDTGNSKGYAFINFASFDASDAAIEAMNGQYLCNRPITVSYAFKKDSKG”: the “soluble on expression in E. coli” value is “soluble”. As to “MMFNNNNWKLSVTDINLYENTVSLDGQPYPLSLAIKTLIPGYLSGLPSTSREAMELLEALAEAGVTIGNFFSNDLMTAYGRRQMNKRAEAERIAKEQRLQAERMREENMTDAEWQKELQRREQVKAERRTYGESLRSATHSAGRSRAAIVADLESGGNWMDSL”, the “soluble on expression in E. coli” value is given as “not soluble”. The same measure for “KTKVGNQSPDVRFGLQNTFKIKDFTVNIDMDGAIGGTLISTTTQKMWWGGKHPKSTMYRQEEYDNGGKPVYVPEGVNIVSGEVTYDVNGNIVSDTRVYKKNETAVNIQTWAQNYPYRAVVRTEESELFANTFSRSFLKLRRVAVTYDLTKFIQSQFIKGLDVTVFGNNLAVLKKTPYLDPDFGASDGDLQDPSARYVGVSANIKF”: “not soluble”; for “QVQLVQSGAEVKKPGSSVKVSCTSSEVTFSSFAISWVRQAPGQGLEWLGGISPMFGTPNYAQKFQGRVTITADQSTRTAYMDLRSLRSEDTAVYYCARSPSYICSGGTCVFDHWGQGTLVTVSSGGGGSGGGGSGGGGIQPGLTQPPSVSKGLRQTATLTCTGNSNNVGNQGAAWLQQHQGHPPKLLSYRNNDRPSGISERFSASRSGNTASLTITGLQPEDEADYYCSTWDSSLSAVVFGGGTKLTVLGQPKAAPSAAAEQKLISEEDLNGAAHHHHHH”: “soluble”.
